Results reported in IntAct's records for PubMed 18761085.

B1: Ras GTPase-activating protein 1 (Homo sapiens), P20936 (parent)
chain: MMAAEAGSEEGGPVTAGAGGGGAAAGSSAYPAVCRVKIPAALPVAAAPYPGLVETGVAGTLGGGAALGSEFLGAGSVAGALGGAGLTGGGTAAGVAGAAAGVAGAAVAGPSGDMALTKLPTSLLAETLGPGGGFPPLPPPPYLPPLGAGLGTVDEGDSLDGPEYEEEEVAIPLTAPPTNQWYHGKLDRTIAEERLRQAGKSGSYLIRESDRRPGSFVLSFLSQMNVVNHFRIIAMCGDYYIGGRRFSSLSDLIGYYSHVSCLLKGEKLLYPVAPPEPVEDRRRVRAILPYTKVPDTDEISFLKGDMFIVHNELEDGWMWVTNLRTDEQGLIVEDLVEEVGREEDPHEGKIWFHGKISKQEAYNLLMTVGQVCSFLVRPSDNTPGDYSLYFRTNENIQRFKICPTPNNQFMMGGRYYNSIGDIIDHYRKEQIVEGYYLKEPVPMQDQEQVLNDTVDGKEIYNTIRRKTKDAFYKNIVKKGYLLKKGKGKRWKNLYFILEGSDAQLIYFESEKRATKPKGLIDLSVCSVYVVHDSLFGRPNCFQIVVQHFSEEHYIFYFAGETPEQAEDWMKGLQAFCNLRKSSPGTSNKRLRQVSSLVLHIEEAHKLPVKHFTNPYCNIYLNSVQVAKTHAREGQNPVWSEEFVFDDLPPDINRFEITLSNKTKKSKDPDILFMRCQLSRLQKGHATDEWFLLSSHIPLKGIEPGSLRVRARYSMEKIMPEEEYSEFKELILQKELHVVYALSHVCGQDRTLLASILLRIFLHEKLESLLLCTLNDREISMEDEATTLFRATTLASTLMEQYMKATATQFVHHALKDSILKIMESKQSCELSPSKLEKNEDVNTNLTHLLNILSELVEKIFMASEILPPTLRYIYGCLQKSVQHKWPTNTTMRTRVVSGFVFLRLICPAILNPRMFNIISDSPSPIAARTLILVAKSVQNLANLVEFGAKEPYMEGVNPFIKSNKHRMIMFLDELGNVPELPDTTEHSRTDLSRDLAALHEICVAHSDELRTLSNERGAQQHVLKKLLAITELLQQKQNQYTKTNDVR
partner: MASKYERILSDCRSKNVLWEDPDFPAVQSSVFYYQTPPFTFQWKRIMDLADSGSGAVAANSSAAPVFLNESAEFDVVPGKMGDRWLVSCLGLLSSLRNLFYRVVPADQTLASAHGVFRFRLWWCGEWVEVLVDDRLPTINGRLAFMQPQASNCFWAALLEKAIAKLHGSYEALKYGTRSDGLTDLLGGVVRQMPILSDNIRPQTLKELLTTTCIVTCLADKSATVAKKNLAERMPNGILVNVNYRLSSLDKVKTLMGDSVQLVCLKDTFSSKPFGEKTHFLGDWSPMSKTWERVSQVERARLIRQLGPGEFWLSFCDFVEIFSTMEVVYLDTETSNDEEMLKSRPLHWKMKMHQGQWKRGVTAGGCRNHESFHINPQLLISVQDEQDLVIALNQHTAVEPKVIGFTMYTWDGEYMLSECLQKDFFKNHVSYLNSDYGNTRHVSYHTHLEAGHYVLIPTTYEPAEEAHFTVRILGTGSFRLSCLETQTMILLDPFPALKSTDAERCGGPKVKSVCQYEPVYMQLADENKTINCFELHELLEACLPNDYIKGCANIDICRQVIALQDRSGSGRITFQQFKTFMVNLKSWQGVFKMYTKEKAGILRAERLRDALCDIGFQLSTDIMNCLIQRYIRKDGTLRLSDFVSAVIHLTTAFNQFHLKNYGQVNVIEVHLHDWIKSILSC

Variants of: B1
Details: with canc_drome CalpC

Row | Variant | effect of a mutation on the interaction
1 | W317K | disrupting interaction
